B1: Flag-eIF2β, wild type [S. cerevisiae] / eIF2γ in yeast whole-cell extracts [yeast (endogenous in yeast whole-cell extracts)] (parent complex)
chain 1: MSSDLAAELGFDPALKKKKKTKKVIPDDFDAAVNGKENGSGDDLFAGLKKKKKKSKSVSADAEAEKEPTDDIAEALGELSLKKKKKKTKDSSVDAFEKELAKAGLDNVDAESKEGTPSANSSIQQEVGLPYSELLSRFFNILRTNNPELAGDRSGPKFRIPPPVCLRDGKKTIFSNIQDIAEKLHRSPEHLIQYLFAELGTSGSVDGQKRLVIKGKFQSKQMENVLRRYILEYVTCKTCKSINTELKREQSNRLFFMVCKSCGSTRSVSSIKTGFQATVGKRRRM
chain 2: MSDLQDQEPSIIINGNLEPVGEPDIVEETEVVAQETQETQDADKPKKKVAFTGLEEDGETEEEKRKREFEEGGGLPEQPLNPDFSKLNPLSAEIINRQATINIGTIGHVAHGKSTVVRAISGVQTVRFKDELERNITIKLGYANAKIYKCQEPTCPEPDCYRSFKSDKEISPKCQRPGCPGRYKLVRHVSFVDCPGHDILMSTMLSGAAVMDAALLLIAGNESCPQPQTSEHLAAIEIMKLKHVIILQNKVDLMREESALEHQKSILKFIRGTIADGAPIVPISAQLKYNIDAVNEFIVKTIPVPPRDFMISPRLIVIRSFDVNKPGAEIEDLKGGVAGGSILNGVFKLGDEIEIRPGIVTKDDKGKIQCKPIFSNIVSLFAEQNDLKFAVPGGLIGVGTKVDPTLCRADRLVGQVVGAKGHLPNIYTDIEINYFLLRRLLGVKTDGQKQAKVRKLEPNEVLMVNIGSTATGARVVAVKADMARLQLTSPACTEINEKIALSRRIEKHWRLIGWATIKKGTTLEPIA

Variants of: B1
Assay: co-immunoprecipitation with FLAG affinity resin, quantified western; yeast whole-cell extracts; three biological replicates; read off a plot

Variant | response
chain 1 MSSDLAAELGFDPALKKKKKTKKVIPDDFDAAVNGKENGSGDDLFAGLKKKKKKSKSVSADAEAEKEPTDDIAEALGELSLKKKKKKTKDSSVDAFEKELAKAGLDNVDAESKEGTPSANSSIQQEVGLPYSELLSRFFNILRTNNPELAGDRSGPKFRIPPPVCLRDGKKTIFSNIQDIAEKLHRSPEHLIQYLFAELGTAGSVDGQKRLVIAGKFQSKQMENVLRRYILEYVTCKTCKSINTELKREQSNRLFFMVCKSCGSTRSVSSIKTGFQATVGKRRRM [chain 1 S202A, chain 1 K214A] | ~0.89 eIF2γ:eIF2β
chain 1 MSSDLAAELGFDPALKKKKKTKKVIPDDFDAAVNGKENGSGDDLFAGLKKKKKKSKSVSADAEAEKEPTDDIAEALGELSLKKKKKKTKDSSVDAFEKELAKAGLDNVDAESKEGTPSANSSIQQEVGLPYSELLSRFFNILRTNNPELAGDRSGPKFRIPPPVCLRDGKKTIFSNIQDIAEKLHRSPEHLIQYLFAELGTSGSVDGQKRLVIKGKAQSKAMENVLRRYILEYVTCKTCKSINTELKREQSNRLFFMVCKSCGSTRSVSSIKTGFQATVGKRRRM [chain 1 F217A, chain 1 Q221A] | ~0.82 eIF2γ:eIF2β
